# Measured values published in IntAct's records for PubMed 25910212.
# B1: U4/U6 small nuclear ribonucleoprotein Prp31 (Homo sapiens), Q8WWY3 (parent)
# chain: MSLADELLADLEEAAEEEEGGSYGEEEEEPAIEDVQEETQLDLSGDSVKTIAKLWDSKMFAEIMMKIEEYISKQAKASEVMGPVEAAPEYRVIVDANNLTVEIENELNIIHKFIRDKYSKRFPELESLVPNALDYIRTVKELGNSLDKCKNNENLQQILTNATIMVVSVTASTTQGQQLSEEELERLEEACDMALELNASKHRIYEYVESRMSFIAPNLSIIIGASTAAKIMGVAGGLTNLSKMPACNIMLLGAQRKTLSGFSSTSVLPHTGYIYHSDIVQSLPPDLRRKAARLVAAKCTLAARVDSFHESTEGKVGYELKDEIERKFDKWQEPPPVKQVKPLPAPLDGQRKKRGGRRYRKMKERLGLTEIRKQANRMSFGEIEEDAYQEDLGFSLGHLGKSGSGRVRQTQVNEATKARISKTLQRTLQKQSVVYGGKSTIRDRSSGTASSVAFTPLQGLEIVNPQAAEKKVAEANQKYFSSMAEFLKVKGEKSGLMST
# Variants of: B1
# Details: with pnma1_human PNMA1, Q8ND90
row,Variant,effect of a mutation on the interaction
1,L107V,with no effect

# Variants of: B1
# Details: with lzts2_human LZTS2, Q9BRK4
# Chain of lzts2_human LZTS2, Q9BRK4 (Q9BRK4 whole entry): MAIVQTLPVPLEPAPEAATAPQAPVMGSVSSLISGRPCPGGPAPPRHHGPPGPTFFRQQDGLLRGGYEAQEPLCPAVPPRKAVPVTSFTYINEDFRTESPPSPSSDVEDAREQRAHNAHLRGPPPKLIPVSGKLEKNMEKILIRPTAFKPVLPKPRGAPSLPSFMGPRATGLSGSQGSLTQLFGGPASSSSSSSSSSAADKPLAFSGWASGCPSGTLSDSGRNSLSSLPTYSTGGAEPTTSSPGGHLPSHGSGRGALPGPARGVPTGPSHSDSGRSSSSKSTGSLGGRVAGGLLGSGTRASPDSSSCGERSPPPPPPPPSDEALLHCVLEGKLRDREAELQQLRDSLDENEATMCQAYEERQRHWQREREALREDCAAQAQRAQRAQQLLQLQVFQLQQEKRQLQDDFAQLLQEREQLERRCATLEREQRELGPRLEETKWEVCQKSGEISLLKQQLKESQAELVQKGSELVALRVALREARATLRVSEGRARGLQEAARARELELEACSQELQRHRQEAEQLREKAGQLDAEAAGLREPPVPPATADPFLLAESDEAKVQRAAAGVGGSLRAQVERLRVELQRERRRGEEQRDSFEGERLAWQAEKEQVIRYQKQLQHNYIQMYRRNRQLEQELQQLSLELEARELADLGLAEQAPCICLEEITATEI
row,Variant,effect of a mutation on the interaction
1,L107V,with no effect

# Variants of: B1
# Details: with pak5_human PAK5, Q9P286
# Chain of pak5_human PAK5, Q9P286 (Q9P286 whole entry, looked up): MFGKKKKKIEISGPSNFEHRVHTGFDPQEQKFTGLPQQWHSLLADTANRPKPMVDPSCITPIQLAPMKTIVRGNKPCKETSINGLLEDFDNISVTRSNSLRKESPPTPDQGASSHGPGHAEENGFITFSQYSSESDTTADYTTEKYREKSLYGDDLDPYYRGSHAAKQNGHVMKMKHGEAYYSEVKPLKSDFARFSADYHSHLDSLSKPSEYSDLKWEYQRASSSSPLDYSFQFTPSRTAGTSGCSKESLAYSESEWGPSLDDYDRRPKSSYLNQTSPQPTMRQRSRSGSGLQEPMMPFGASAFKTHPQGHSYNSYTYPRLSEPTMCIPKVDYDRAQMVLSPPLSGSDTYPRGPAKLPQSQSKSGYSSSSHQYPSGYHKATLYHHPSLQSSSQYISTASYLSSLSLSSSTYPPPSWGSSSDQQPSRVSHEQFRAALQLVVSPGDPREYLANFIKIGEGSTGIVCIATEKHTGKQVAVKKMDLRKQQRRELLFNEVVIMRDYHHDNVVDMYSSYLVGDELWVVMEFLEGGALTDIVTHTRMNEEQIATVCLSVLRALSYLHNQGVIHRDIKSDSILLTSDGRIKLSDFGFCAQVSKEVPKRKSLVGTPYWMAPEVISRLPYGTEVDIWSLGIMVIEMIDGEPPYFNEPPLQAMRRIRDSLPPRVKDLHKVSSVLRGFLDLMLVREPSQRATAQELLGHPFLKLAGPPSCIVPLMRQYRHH
row,Variant,effect of a mutation on the interaction
1,L107V,with no effect

# Variants of: B1
# Details: with myome_human PDE4DIP
row,Variant,effect of a mutation on the interaction
1,L107V,with no effect

# Variants of: B1
# Details: with tsg10_human TSGA10, Q9BZW7
row,Variant,effect of a mutation on the interaction
1,L107V,with no effect

# Variants of: B1
# Details: with ppip1_human PSTPIP1, O43586
row,Variant,effect of a mutation on the interaction
1,L107V,with no effect

# Variants of: B1
# Details: with fbln4_human EFEMP2, O95967
# Chain of fbln4_human EFEMP2, O95967 (O95967 whole entry): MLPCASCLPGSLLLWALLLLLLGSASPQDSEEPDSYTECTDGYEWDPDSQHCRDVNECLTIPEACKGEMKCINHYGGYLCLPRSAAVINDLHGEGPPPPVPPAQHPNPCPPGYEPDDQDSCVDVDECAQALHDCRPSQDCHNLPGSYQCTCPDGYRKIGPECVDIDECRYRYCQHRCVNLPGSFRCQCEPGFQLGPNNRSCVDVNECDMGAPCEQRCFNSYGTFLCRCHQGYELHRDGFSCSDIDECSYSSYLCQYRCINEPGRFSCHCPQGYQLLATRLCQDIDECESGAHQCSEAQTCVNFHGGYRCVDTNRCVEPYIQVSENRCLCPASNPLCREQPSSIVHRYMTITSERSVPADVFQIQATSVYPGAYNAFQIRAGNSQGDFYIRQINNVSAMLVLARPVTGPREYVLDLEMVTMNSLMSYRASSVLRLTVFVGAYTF
row,Variant,effect of a mutation on the interaction
1,L107V,with no effect

# Variants of: B1
# Details: with ldoc1_human LDOC1, O95751
row,Variant,effect of a mutation on the interaction
1,L107V,with no effect

# Variants of: B1
# Details: with znf24_human ZNF24, P17028
# Chain of znf24_human ZNF24, P17028 (P17028 whole entry): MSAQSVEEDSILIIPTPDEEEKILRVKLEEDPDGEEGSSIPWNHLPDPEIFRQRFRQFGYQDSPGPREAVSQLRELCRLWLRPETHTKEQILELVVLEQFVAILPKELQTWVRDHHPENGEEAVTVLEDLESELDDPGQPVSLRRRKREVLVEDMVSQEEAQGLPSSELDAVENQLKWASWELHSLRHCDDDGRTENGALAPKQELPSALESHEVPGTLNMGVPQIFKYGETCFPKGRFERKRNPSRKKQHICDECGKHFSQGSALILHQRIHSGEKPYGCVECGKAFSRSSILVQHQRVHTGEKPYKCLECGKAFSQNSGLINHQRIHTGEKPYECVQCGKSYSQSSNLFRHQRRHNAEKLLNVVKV
row,Variant,effect of a mutation on the interaction
1,L107V,with no effect

# Variants of: B1
# Details: with KRT15, P19012
# Chain of KRT15, P19012 (P19012 whole entry): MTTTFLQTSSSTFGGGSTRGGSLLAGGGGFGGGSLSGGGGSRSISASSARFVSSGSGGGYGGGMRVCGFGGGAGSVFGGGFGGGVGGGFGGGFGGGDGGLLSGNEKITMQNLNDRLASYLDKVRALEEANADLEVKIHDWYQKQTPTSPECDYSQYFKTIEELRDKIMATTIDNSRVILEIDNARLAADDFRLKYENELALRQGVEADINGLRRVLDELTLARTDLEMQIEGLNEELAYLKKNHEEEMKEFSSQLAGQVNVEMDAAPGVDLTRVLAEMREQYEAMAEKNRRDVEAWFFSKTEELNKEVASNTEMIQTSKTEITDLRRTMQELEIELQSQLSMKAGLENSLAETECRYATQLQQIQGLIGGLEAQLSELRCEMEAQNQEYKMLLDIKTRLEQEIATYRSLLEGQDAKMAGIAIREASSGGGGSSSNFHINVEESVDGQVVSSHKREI
row,Variant,effect of a mutation on the interaction
1,L107V,with no effect

# Variants of: B1
# Details: with rbmx_human RBMX
row,Variant,effect of a mutation on the interaction
1,L107V,with no effect

# Variants of: B1
# Details: with HNRNPK
row,Variant,effect of a mutation on the interaction
1,L107V,with no effect

# Variants of: B1
# Details: with mdfi_human MDFI
row,Variant,effect of a mutation on the interaction
1,L107V,with no effect

# Variants of: B1
# Details: with ZNF250, P15622-3
row,Variant,effect of a mutation on the interaction
1,L107V,with no effect

# Variants of: B1
# Details: with zn587_human ZNF587, Q96SQ5
# Chain of zn587_human ZNF587, Q96SQ5 (Q96SQ5 whole entry): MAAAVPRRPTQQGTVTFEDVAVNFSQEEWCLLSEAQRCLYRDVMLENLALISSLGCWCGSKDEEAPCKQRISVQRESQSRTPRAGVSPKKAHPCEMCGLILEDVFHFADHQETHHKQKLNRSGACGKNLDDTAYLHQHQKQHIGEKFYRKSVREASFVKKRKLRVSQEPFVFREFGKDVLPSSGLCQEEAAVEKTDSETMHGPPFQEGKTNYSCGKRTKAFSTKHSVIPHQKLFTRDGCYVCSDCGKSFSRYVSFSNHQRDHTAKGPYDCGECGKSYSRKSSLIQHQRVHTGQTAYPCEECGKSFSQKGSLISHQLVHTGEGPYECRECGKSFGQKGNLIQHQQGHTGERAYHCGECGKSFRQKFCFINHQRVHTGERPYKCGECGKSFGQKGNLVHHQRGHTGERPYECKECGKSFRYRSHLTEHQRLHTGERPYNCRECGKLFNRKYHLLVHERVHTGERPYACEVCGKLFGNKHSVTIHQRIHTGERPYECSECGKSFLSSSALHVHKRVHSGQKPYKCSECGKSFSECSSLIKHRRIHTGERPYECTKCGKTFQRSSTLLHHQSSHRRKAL
row,Variant,effect of a mutation on the interaction
1,L107V,with no effect

# Variants of: B1
# Details: with KRT40, Q6A162
row,Variant,effect of a mutation on the interaction
1,L107V,with no effect

# Variants of: B1
# Details: with nt2na_human NOTCH2NLA
row,Variant,effect of a mutation on the interaction
1,L107V,with no effect

# Variants of: B1
# Details: with tfp11_human TFIP11, Q9UBB9
# Chain of tfp11_human TFIP11, Q9UBB9 (Q9UBB9 whole entry): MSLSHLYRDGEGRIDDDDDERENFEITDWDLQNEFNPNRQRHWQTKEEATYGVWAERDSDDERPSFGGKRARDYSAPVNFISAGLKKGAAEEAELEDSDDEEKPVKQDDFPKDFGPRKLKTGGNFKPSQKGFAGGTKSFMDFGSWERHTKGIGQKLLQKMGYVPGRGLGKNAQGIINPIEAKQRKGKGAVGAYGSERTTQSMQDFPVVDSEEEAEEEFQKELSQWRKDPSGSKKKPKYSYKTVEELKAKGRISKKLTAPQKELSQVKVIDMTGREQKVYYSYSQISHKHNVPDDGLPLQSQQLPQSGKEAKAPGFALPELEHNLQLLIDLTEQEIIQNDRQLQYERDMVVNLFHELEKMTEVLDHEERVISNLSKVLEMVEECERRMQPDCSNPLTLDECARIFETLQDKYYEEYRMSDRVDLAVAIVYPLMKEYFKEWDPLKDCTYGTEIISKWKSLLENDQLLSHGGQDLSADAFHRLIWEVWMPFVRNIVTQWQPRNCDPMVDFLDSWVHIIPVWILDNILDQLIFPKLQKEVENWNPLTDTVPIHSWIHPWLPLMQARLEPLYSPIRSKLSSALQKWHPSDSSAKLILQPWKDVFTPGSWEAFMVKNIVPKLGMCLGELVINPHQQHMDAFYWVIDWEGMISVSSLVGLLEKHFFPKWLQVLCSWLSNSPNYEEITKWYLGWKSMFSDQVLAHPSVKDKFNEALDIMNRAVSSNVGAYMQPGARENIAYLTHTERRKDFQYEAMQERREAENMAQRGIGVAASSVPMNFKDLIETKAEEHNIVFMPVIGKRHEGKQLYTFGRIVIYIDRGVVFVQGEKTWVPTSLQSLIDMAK
row,Variant,effect of a mutation on the interaction
1,L107V,with no effect

# Variants of: B1
# Details: with goga2_human GOLGA2, Q08379
row,Variant,effect of a mutation on the interaction
1,L107V,with no effect

# Variants of: B1
# Details: with jkip2_human JAKMIP2, Q96AA8
row,Variant,effect of a mutation on the interaction
1,L107V,with no effect

# Variants of: B1
# Details: with ccd33_human CCDC33, Q8N5R6
# Chain of ccd33_human CCDC33, Q8N5R6 (Q8N5R6 whole entry): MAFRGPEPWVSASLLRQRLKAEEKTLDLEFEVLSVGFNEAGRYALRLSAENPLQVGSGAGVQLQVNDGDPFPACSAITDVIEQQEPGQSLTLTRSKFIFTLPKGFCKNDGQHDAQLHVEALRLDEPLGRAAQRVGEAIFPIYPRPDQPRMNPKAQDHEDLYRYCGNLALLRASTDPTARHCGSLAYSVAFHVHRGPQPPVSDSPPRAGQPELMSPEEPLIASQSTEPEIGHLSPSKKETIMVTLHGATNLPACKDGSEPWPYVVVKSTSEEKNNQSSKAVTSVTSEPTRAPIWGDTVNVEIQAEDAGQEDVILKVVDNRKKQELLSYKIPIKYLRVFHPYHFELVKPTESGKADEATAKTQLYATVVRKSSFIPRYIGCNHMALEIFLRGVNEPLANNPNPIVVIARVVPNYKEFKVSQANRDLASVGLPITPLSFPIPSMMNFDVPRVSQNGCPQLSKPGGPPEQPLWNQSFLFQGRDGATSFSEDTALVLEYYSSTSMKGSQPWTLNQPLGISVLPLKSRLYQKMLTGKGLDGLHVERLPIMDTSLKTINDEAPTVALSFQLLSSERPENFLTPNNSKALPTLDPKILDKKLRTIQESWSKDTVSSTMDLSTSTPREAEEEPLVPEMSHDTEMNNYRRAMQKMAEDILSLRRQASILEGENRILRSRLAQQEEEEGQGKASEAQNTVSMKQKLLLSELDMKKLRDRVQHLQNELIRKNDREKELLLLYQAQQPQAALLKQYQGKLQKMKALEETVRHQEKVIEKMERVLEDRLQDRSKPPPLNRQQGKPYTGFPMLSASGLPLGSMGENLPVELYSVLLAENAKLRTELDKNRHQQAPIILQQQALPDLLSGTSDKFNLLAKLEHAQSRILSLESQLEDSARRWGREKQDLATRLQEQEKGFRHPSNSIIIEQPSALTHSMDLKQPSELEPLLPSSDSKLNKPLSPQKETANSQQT
row,Variant,effect of a mutation on the interaction
1,L107V,with no effect

# Variants of: B1
# Details: with zn417_human ZNF417, Q8TAU3
row,Variant,effect of a mutation on the interaction
1,L107V,with no effect

# Variants of: B1
# Details: with MTUS2, Q5JR59-3
row,Variant,effect of a mutation on the interaction
1,L107V,with no effect
